One test concerns the target human CD3 (human, UniProt P07766 23-126). The test can be described thus: method not stated in the legend (Figure 142).
For a further test, the target named is T1, cyno CD3 (cyno, UniProt Q95LI5 22-117).
T1 construct: also called cynomolgus monkey CD3
T1 sequence (looked up): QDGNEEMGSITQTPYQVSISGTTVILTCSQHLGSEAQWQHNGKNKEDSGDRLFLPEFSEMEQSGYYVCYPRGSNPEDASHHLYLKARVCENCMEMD
Kind of test: method not stated in the legend (Figure 143).

human CD3, sequence (P07766 23-126): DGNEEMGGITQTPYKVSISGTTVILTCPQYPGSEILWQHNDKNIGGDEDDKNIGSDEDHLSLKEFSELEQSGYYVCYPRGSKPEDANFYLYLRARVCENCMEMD

B1: XENP14045 (anti-CD123 x anti-CD3) bispecific (bispecific antibody)
chain 1: QVQLQQSGAEVKKPGASVKVSCKASGYTFTDYYMKWVKQSHGKSLEWMGDIIPSNGATFYNQKFKGKATLTVDRSTSTAYMELSSLRSEDTAVYYCARSHLLRASWFAYWGQGTLVTVSSASTKGPSVFPLAPSSKSTSGGTAALGCLVKDYFPEPVTVSWNSGALTSGVHTFPAVLQSSGLYSLSSVVTVPSSSLGTQTYICNVNHKPSDTKVDKKVEPKSCDKTHTCPPCPAPPVAGPSVFLFPPKPKDTLMISRTPEVTCVVVDVKHEDPEVKFNWYVDGVEVHNAKTKPREEEYNSTYRVVSVLTVLHQDWLNGKEYKCKVSNKALPAPIEKTISKAKGQPREPQVYTLPPSREEMTKNQVSLTCDVSGFYPSDIAVEWESDGQPENNYKTTPPVLDSDGSFFLYSKLTVDKSRWEQGDVFSCSVMHEALHNHYTQKSLSLSPGK
chain 2: not shown
chain 3: not shown
On to B1, for which the Kd was 8.1 nM in the test with human CD3 and 5.7 nM with cyno CD3.
